Biological target: T1, CitERF16 (Citrus, UniProt V4VLW3 1-243)
T1 sequence: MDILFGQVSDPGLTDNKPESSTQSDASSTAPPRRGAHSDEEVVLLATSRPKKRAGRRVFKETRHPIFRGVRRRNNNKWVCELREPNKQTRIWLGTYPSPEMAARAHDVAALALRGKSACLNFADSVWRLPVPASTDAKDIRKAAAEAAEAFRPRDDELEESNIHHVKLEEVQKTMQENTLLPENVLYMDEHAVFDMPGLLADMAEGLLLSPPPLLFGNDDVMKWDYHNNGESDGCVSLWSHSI
Experiment: EMSA; unlabelled same-sequence probe reduced binding; LightShift Chemiluminescent EMSA kit (Thermo), per manufacturer; buffer, salt, pH and temperature not stated
Details: protein: recombinant; tags: His (pET-32a vector fusion); label: 3'-biotin; blunt

B1: CitSWEET11d promoter probe (dsDNA)
DNA 1: AAACGATGTCGGTACTCGGTCCGCATGCAATCATACAAAACAACAAGAAT
DNA 2: ATTCTTGTTGTTTTGTATGATTGCATGCGGACCGAGTACCGACATCGTTT
B1: binds.

— PMC8733390, “Transcription Factor CitERF16 Is Involved in Citrus Fruit Sucrose Accumulation by Activating CitSWEET11d”
